# Reference: the DeepSol protein solubility set
# Assay: soluble on expression in E. coli; label from the status in PepcDB or PDB records
row,Sequence,soluble on expression in E. coli
1,MLEGAKFNVLAVGNHHNNDNNYYAFTQEFYQKLNEGSNMSMESMQTSNAGGSVSMSVDNSSVGSSDALIGHPGLKPVRHYSLSVGQSVFRPGRVTHALNDDALAQALMDTRYPTEGLTNYDEWTIDLRKLNMGPAFAQGAFGKLYKGTYNGEDVAIKILERPENSPEKAQFMEQQFQQEVSMLANLKHPNIVRFIGACRKPMVWCIVTEYAKGGSVRQFLTRRQNRAVPLKLAVKQALDVARGMAYVHGRNFIHRDLKSDNLLISADKSIKIADFGVARIEVQTEGMTPETGTYRWMAPEMIQHRAYNQKVDVYSFGIVLWELITGLLPFQNMTAVQAAFAVVNRGVRPTVPNDCLPVLSDIMTRCWDANPEVRPCFVEVVKLLEAAETEIMTTARKARFRCCLSQPMTID,not soluble
2,MGSDKIHHHHHHMHPNIATLLSANLGESRTRHLLSLVSVPDGLPSDAEGRATRAEIAQALNMVLFAGILDRVPTGRAYTDDVAATGGKVVFDHGALRTVKWRDNGALPEGEAAFTRILRPLGYRLNGNYPLDRISMTGRSYAHADAPEGIAQFFVSEFHPERFSDAFREAVGRVTGNSADPLTPRAQTLLWQLDRDGVLTVADGAELIGLLVPCFERQHGVPRLADYETLLRESAEMAWIATEGNAFNHATDRVDDVFGLSEQQKALGRPMKDKVEVSGSGRVKQTAFRADTVRRQFIGAQGETVERDVPGSFYEFITRDRFADAPAASPRVDLGFDAGNAQGIFKMTAAV,not soluble
3,MARVLVVDDAAFMRMLLKKILTQAGHEVVGEASNGKEAVEKYKQLKPDLVTMDIVMPEMDGITAVKEIMKIDPNAKIIMITAVGQEAKVMEALKSGAKGYIVKPFQAQKVIEEVNRVLSS,soluble
4,MSKKPTSAYVHIPFCTQICYYCDFSKVFIQNQPVDAYLKALIQEFDSYGIRDLKTLYIGGGTPTAITAKQLEYLLNHLERNLNLDDLEEFTIEANPGDLTPEKIAVLQRSAVNRISLGVQTFNNKQLKQIGRSHNEEQIYSTIANLKTAGFHNISIDLIYALPGQTLDQVKENVAKALALDIPHLSLYSLILEHHTVFMNKMRRGKLNLPTEDLEAEMFEYIISEMEANGFEH,not soluble
5,GPGSMRSLVVHLLSYTQRFASAKPTILYVPQKTLIAEQVMEDEFKLSHTFPSLRIASLDLDYVFLEEKFFTMTLPLSFKSVFADGDLSNLTWIARLLLKLQTARFGAIRHIRGKGSNAAKVIQLLQRMQNNISHDFITDIPSEVETLIIIDRSVDFVTPLMTQLTYEGLIDELYDIENCEVQFPFSLGESSGVGASEKVVLNSTDRMFAEIRDRSFTGVGSVLYQKSIWVKQNYDKRKEVQQLKELKEFMKGLPEMQEMHRLIGIHTNVATEISKTTQRTDFRKRIMFEHNIIQQTNEGDVLRYIEDLVFRKEKFEVVLRLLALLSLVNSGLREKDLLGLKENMMLVYGIPHVITAFFMLERCGLLCAQSGKGSSYSTIRKQLRTWNSSVPEGQPNDIAYAYGGYAPPFVRMVDTLLRNPQAWDAEDDAPSLLPGEKKELMNDVEIAGTTKTAIVFVIGGITASEVSALRFVEERLSSGGRPHRIFIGTTDIISGNRMIRSLLPFEPAR,not soluble
6,MGWCVMAVLVDSETRVLVQGITGREGSFHAKAMLEYGTKVVAGVTPGKGGSEVHGVPVYDSVKEALAEHPEINTSIVFVPAPFAPDAVYEAVDAGIRLVVVITEGIPVHDTMRFVNYARQKGATIIGPNCPGAITPGQAKVGIMPGHIFKEGGVAVVSRSGTLTYEISYMLTRQGIGQSTVIGIGGDPIVGLSFTEALKLFQEDPQTEALVLIGEIGGDMEERAAEMIKKGEFTKPVIAYIAGRTAPPEKRMGHAGAIIMMGTGTYEGKVKALREAGVEVAETPFEVPELVRKALRR,soluble
7,MSDNAQLSGLCDRFRGFYPVVIDVETAGFNAKTDALLEIAAITLKMDEQGWLMPDMTLHFHVEPFAGANLQPEALAFNGIDPSNPLRGAVSEYEALHAIFKMVRKGIKDSGCSRAIMVAHNATFDHSFMMAAAERASLKRNPFHPFVTFDTAALSGLALGQTVLSKACLAAGMEFDGEKAHSALYDTERTAVLFCEIVNRWKRLGGWPLPLPTDK,not soluble
8,MTAAEHGLHAPAYAWSHNGPFETFDHASIRRGYQVYREVCAACHSLDRVAWRTLVGVSHTNEEVRNMAEEFEYDDEPDEQGNPKKRPGKLSDYIPGPYPNEQAARAANQGALPPDLSLIVKARHGGCDYIFSLLTGYPDEPPAGVALPPGSNYNPYFPGGSIAMARVLFDDMVEYEDGTPATTSQMAKDVTTFLNWCAEPEHDERKRLGLKTVIILSSLYLLSIWVKKFKWAGIKTRKFVFNPPKPRK,soluble
9,MRRTLVVPDVLLLGTLLAGLLLLSGCEGDYRPRAVGPIGEITVVMDSSHWTGPSGEALRANVTPWVETLPVSERSFQLRHLELTDERTYERVQDLKNVIIAAPLSDSTNETSFLRRRLSDEAEQAILDGQTAVVPKPNLWRRSQRIYYVAAASPDALAETFQSQGTQIRDTFTEATLQRMDRNMYEDDRRSALEDTLMQRHGFAVNMQSDFQIAVDTTTGSEGFVWLRRLLAQTRREFFVYYVEDVSPDQITPEWIYNTRDSLTRRHLRGNVRGFAKIDYRRPLKTEQRSFLDRYAYDSRGLWYMVAPLGGGNELRPVGGGGPFVNYTFYDQATDRVYMLDGSIFAPDNDKIDLLRQMEVMARTFRTAEGSRSPDASPTAAKLEHHHHHH,not soluble
10,MKVFLYDTNLILASRVRSLLSSQGFEISDKEEACAGVVNLESPKGLEVVKELKEKGKKVVGYCGHKNVPLIQKAKELGVDEVIPNSQVVTSLGEILKKLCS,not soluble
11,MAYDLAVPGPIMQEVAQYLASLSGKAVVINIFAGHADRSLSQTQLAELLDKLLARHPGSAVILLDHRREIRIPLPPEVVINPFNTLHHAMALIAQAELIISPDTSVVHMAAAWNKPLIAVYKDVLLNNRLWAPGYDNARQIIVKCGKVHQHRGLVDRIIAALPETLLEHHHHHH,not soluble
12,MAFEGLSERLQATMQKMRGKGKLTEADIKIMMREVRLALLEADVNFKVVKEFIKTVSERALGSDVMQSLTPGQQVIKIVQDELTQLMGGENTSINMSNKPPTVVMMVGLQGAGKTTTAGKLALLMRKKYNKKPMLVAADIYRPAAINQLQTVGKQIDIPVYSEGDQVKPQQIVTNALKHAKEEHLDFVIIDTAGRLHIDEALMNELKEVKDIAKPNEIMLVVDSMTGQDAVNVAESFDDQLDVTGVTLTKLDGDTRGGAALSIRSVTQKPIKFVGMSEKLDGLELFHPERMASRILGMGDVLSLIEKAQQDVDQEKAKDLEKKMRESSFTLDDFLEQLDQVKNLGPLDDIMKMIPGMNKMKGLDKLNMSEKQIDHIKAIIQSMTPAERNNPDTLNVSRKKRIAKGSGRSLQEVNRLMKQFNDMKKMMKQFTGGGKGKKGKRNQMQNMLKGMNLPF,not soluble
13,RATPRMEDLASTDLSTRATGSINAVYFTNWGIYGRNFQPADLQASKILHVLYSFMNLRVDGTVYSGDTYADLEKHYSDDSWNDIGTNAYGCVKQLYKLKKANRSLKIMLSIGGWTWSTNFPAAASTEATRATFAKTAVEFMKDWGFDGIDVDWEYPASETDANNMVLLLQRVRQELDSYSATYANGYHFQLSIAAPAGPSHYNVLKLAQLGSVLDNINLMAYDYAGSWDSVSGHQTNLYPSTSNPSSTPFSTKAAVDAYIAAGVPASKIILGMPIYGRAFVGTDGPGKPYSTIGEGSWESGIWDYKVLPKAGATVITDSAAGATYSYDSSSRTMISYDTPDMVRTKVSYAKGLGLGGSMFWEASADKTGSDSLIGTALSSMGSHDSTQNCLSYPNSKFDNIKNSLS,soluble
14,MGSDKIHHHHHHMSLKTSDVKFKDRIQTQIHDPIMRKAVANAQERIGANRQKMVDELGHWEAWRDHAAQIREHVLNNLDAYLYQLSEKVTANGGQVYFAKTKEDATRYILQVAQANHAKKVVKAKSMVTEEIGMNHVLQQAGIEVIETDLGEYILQLDQDPPSHVVVPAIHKDRYQIRKVLHEKLGYDGPETPEAMTLFIRKKIREDFLSAEVGVTGCNFAVAETGSVCLVTNEGNARMCTTLPKTHIAVMGMERIAPTFEEVDVLITMLARSAVGARLTGYNTWLTGPREAGHVDGPQEFHLVIVDNGRSQILGSAFRDILRCIRCGACINTCPAYRHIGGHGYGSIYPGPIGAVISPLLGGYQDFKELPYACSLCTACDTVCPVHIPLSSLILKHRRVMAESGITPKAEQRFTKLFSYVNSHPMLWKVGMIAGAHAAGWFIKNGKTRIEMGAIGEWTEARDLPDADGESFRSWFKKHQARGKK,not soluble
15,MGSDKIHHHHHHMRCPWRKTRRHSDNGWYGPRNQIRPDDHRLHRKVRKSRGDSRRAGNGSPRARCFEGAQRRGKSDGLSECGRMKNLLEMVELVRGKRMKIAVGAAEDEEVLKAVARAKEEEIVDPVLFGKRKDIETLVERMNLELEAEIVHVEDPFEAVRKAVESVSRNETQILMKGKIKTSDLFSVFLKKEYGLRTGRTLSAVSVHEVPGYHKILIISDGGLVISPNLQQRMDIVENSILVARALGIEKPKIALLGTGDLKSPLTLEIAALSKIFQQRNDCIVDGPLTLDLAISEELASKAGNSPVAGDADILIVPSIETGNILSKSLVYMARGRAAIVVVGGRVPVVLTSRADDEETRFLSIALSVLVAQKKG,not soluble
16,MKTLGEFIVEKQHEFSHATGELTALLSAIKLGAKIIHRDINKAGLVDILGASGAENVQGEVQQKLDLFANEKLKAALKARDIVAGIASEEEDEIVVFEGCEHAKYVVLMDPLDGSSNIDVNVSVGTIFSIYRRVTPVGTPVTEEDFLQPGNKQVAAGYVVYGSSTMLVYTTGCGVHAFTYDPSLGVFCLCQERMRFPEKGKTYSINEGNYIKFPNGVKKYIKFCQEEDKSTNRPYTSRYIGSLVADFHRNLLKGGIYLYPSTASHPDGKLRLLYECNPMAFLAEQAGGKASDGKERILDIIPETLHQRRSFFVGNDHMVEDVERFIREFPDA,soluble
17,MGYRNLPPHLNPLAPLALDDPPGWLTSFKLRRLTADQCASLLAEANRRRLIASRPVADSEGSCPLRNVVRVANFGSVQLSSSFLASCPLALSSALYIEQQAKPLTRQLMASDLRQIDHLGSFACRNIYHRQQARRSEHATADALDVSGFRLADGRRVSVLQGWRSETSRPWLAALLSSSCHYFGNALGPEYNAAHANHFHFGMRGQGFCFLEHHHHHH,not soluble
